The source of these data is patent US20120301477A1.

In this assay the target is CCR9 (chemokine (C-C motif) receptor 9) (human) (UniProt P51686). Kind of assay: cell-based or functional assay.
Sequence of UniProt P51686 (P51686 whole entry): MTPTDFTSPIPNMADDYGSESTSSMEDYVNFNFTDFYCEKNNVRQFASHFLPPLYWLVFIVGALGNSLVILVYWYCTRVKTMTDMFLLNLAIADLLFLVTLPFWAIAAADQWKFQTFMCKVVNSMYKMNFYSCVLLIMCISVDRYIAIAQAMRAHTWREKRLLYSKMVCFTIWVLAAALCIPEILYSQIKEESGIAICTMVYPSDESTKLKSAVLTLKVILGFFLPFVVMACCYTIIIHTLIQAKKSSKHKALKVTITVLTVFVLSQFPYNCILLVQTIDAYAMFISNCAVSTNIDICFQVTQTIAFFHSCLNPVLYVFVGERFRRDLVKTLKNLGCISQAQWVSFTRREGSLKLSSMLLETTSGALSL

Substance “Human recombinant CCL25 (from UniProt O15444 24-150) (ligand)” showed an impairment of migratory response to CCL25 after CCR9 siRNA, melanoma line ML of 76% and an impairment of migratory response to CCL25 after CCR9 siRNA, melanoma line MP of 63%.
